Tests used:
p53 wild type [1] = molecular target: T1, p53 wild type (Homo sapiens, UniProt P04637 P04637:1-393); assay: EMSA; casein kinase II-activated, 1 mM ATP; conditions: tags: bacterial expression, Fraction III; chain copies: 4 inferred; label: 32P; Hind III compatible overhangs
Experimental: (§1) In the first stage, wild type p53 (60 ng) or mutant forms of p53 (180 ng) was incubated with ATP and the indicated activating protein at 30° C. for 30 minutes. In the second stage, the consensus site oligonucleotide was added to the reactions to assay for sequence-specific DNA binding. (A) PAb421; lane 1, 3 and 5 (p53, p53 His 273, and p53 Lys285, respectively), lanes 2, 4 and 6 (PAb421 and p53, p53 His273, and p53 Lys285, respectively). (B) DnaK; lanes 1, 5, and 9 (p53, p53 His273, and p53 Lys285, respectively), lanes 2, 6 and 10 (DO-1 and p53, p53 His273, and p53 Lys285, respectively), lanes 3, 7 and 11 (DnaK and p53, p53 His273, and p53 Lys285, respectively), lanes 4, 8 and 12 (DnaK and p53, p53 His273, and p53 Lys285, respectively, followed by DO-1). […] PAb421-activated p53 (solid bar), DnaK-activated p53 (open bar), casein kinase II-activated p53 (stippled bar).

p53 wild type [2] = molecular target: T1, p53 wild type; assay: EMSA; DnaK-activated, 1 mM ATP; conditions: tags: bacterial expression, Fraction III; chain copies: 4 inferred; label: 32P; Hind III compatible overhangs
Experimental: as §1

T1 sequence (P04637 whole entry, one chain of several): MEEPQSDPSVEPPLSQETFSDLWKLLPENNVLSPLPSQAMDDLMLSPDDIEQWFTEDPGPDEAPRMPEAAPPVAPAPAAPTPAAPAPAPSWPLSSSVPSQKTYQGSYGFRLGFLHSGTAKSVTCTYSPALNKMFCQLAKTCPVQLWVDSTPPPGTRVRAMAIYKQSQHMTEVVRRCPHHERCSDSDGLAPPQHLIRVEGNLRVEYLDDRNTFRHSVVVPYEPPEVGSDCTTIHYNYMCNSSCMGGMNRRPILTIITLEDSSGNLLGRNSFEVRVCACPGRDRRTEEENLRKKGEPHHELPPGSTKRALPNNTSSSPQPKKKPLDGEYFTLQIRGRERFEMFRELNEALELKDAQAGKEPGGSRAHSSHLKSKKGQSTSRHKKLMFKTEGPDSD

B1: PG p53 consensus site (dsDNA)
DNA 1: AGCTTAGACATGCCTAGACATGCCTA
DNA 2: AGCTTAGGCATGTCTAGGCATGTCTA
B1 gave an activity (p53 wild type [1]) of 64 fmol DNA bound/ug protein and an activity (p53 wild type [2]) of 57 fmol DNA bound/ug protein.

Source: patent publication US6140058, “Activation of p53 protein” (Newburn Ellis)
